Measurements as given in paper PMC4020817.

What was measured:
[1] = target: recombinant APOBEC3A (rA3A) (human) (UniProt P31941); assay: SEC; rA3A without concentration on a Superose-12 gel filtration column (FPLC) with protein standards, in the buffer used for measuring deaminase activity; fractions immunoblotted with anti-A3A antibody
[2] = test system: rA3A wild type (Homo sapiens); assay: fluorescence binding titration; conditions: EMSA: 0.5 pmol oligo, 2 ug rA3A in 10 ul deaminase buffer (composition not given), 4 C, 1 h, 6% native PAGE. Intrinsic fluorescence: 225 nM rA3A, 25 mM Tris pH …
[3] = target: A3A E72A/delWG104-5 E72A;del104-105 (Homo sapiens) (UniProt P31941); assay: extrinsic fluorescence titration; conditions: EMSA: 0.5 pmol oligo, 2 ug rA3A in 10 ul deaminase buffer (composition not given), 4 C, 1 h, 6% native PAGE. Intrinsic fluorescence: 225 nM rA3A, 25 mM Tris pH …
A3A E72A/delWG104-5 E72A;del104-105 (Homo sapiens), sequence (P31941 other isoform, or with tags, fused parts or gaps E72A E72A): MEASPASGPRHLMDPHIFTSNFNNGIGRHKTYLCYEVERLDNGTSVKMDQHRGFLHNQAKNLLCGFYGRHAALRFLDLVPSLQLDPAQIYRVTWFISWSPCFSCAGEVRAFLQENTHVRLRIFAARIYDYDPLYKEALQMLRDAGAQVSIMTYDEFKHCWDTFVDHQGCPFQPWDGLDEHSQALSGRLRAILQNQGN

recombinant APOBEC3A (rA3A), P31941 1-199 (enzyme; other documents disagree on this pair), sequence (P31941 whole entry): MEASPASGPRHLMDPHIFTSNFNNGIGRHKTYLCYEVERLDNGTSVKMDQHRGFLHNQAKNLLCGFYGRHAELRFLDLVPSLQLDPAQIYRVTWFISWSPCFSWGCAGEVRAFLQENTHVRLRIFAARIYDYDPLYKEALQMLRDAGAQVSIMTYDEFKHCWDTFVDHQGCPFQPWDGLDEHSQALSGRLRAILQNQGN

stoichiometry N [1] | Substance | Kd [2] [nM] | binding signal (fold higher affinity than wild type) [3]
2 | recombinant APOBEC3A (rA3A), P31941 1-199 (enzyme; other documents disagree on this pair) |  | 
 | ssDNA oligo of fluorescence Kd assays | 158 | 3
